Experimental findings from patent publication US12303551B2, “Cellular immunotherapy compositions and uses thereof” (CERO THERPEUTICS HOLDINGS, INC., priority 2018, dated 2025) are described below.

The subject of one assay is SCC152 cells. The assay can be described thus: Magnitude breadth analysis of phagocytosis by CER type (pHrodo red / CELLTRACE violet microscopy). In kind it is cell-based. Particulars: CD4+ T cells, pHrodo red stained SCC152. How it is done: Top image is an enlargement of a cell in the lower left image showing a SCC152 cell engulfed by CER126-transduced CD4+ T cell. […] White arrow indicates CD8+ T cell transduced with E7-specific TCR and that is pHrodo Red negative (lower left panel of FIG. 60B). Software rendition of phagocytosis (lower right panel of FIG. 60B).
Various CER-modified CD4+ T cells were also evaluated for breadth of response to determine whether a particular CER confers a broad phagocytic response of low magnitude (e.g., 10% engulfment in 90% of cells) or a less frequent but strong phagocytic response (e.g., 90% engulfment in 10% of cells) in the host cells. CD8+ T cells were transduced with HPV16 E7 specific TCR as described in Example 1. CD4+ T cells were transduced with lentiviral vectors comprising a CER21, CER27, CER104, CER116, or CER117 nucleic acid. Mock-transduced (vector alone) CD4+ T cell were used as control. CD4+/CER+ and CD8+/E7 TCR+ T cells were stained with CELLTRACE violet. HPV16 E7+ head and neck squamous cell carcinoma cells (SCC152) were stained with pHrodo red. HPV16 E7 TCR transduced CD8+ T cells and selected CER transduced CD4+ T cells were mixed at a 1:1 ratio and co-cultured with SCC152 cells at a 1:1 ratio for 8 hours. Phagocytosis of target SCC152 cells by CER-transduced CD4+ T cells was analyzed by fluorescence microscopy. […] The horizontal axis represents the % area of CER-transduced CD4+ T cells having engulfment or % area of the CER-transduced CD4+ T cells taken up by target SCC152 cells. This measure was rarely above 40% across CER types tested. The vertical axis represents the proportion of CER-transduced CD4+ T cells that were phagocytic. For CER104, about 20% of CER104-transduced CD4+ T cells have more than 10% engulfment. For CER117-transduced CD4+ T cells, less than 10% have more than 10% engulfment.

Assay [1] has as its system HPV+ SCC152/luceriferase+ cells. Description: SCC152/luciferase xenograft in NSG mice, bioluminescence imaging. In kind it is in vivo. Particulars: E7 TCR CD8+ T cells + mock transduced CD4+ T cells; compared to untreated controls. The procedure: HPV+ SCC152 engrafted NSG mice were treated with HPV E7 TCR modified CD8+ T cells+CD4+ T cells (mock transduced), HPV E7 TCR modified CD8+ T cells+hCER104 modified CD4+ T cells, or untreated. FIG. 74B is a graph of mean values of bioluminescence signal intensities obtained for treatment group.
HPV+ SCC152/luceriferase^+ cells were engrafted in NSG mice. Once tumors were established, mice were treated with HPV E7 specific TCR (SEQ ID NO:84) modified CD8+ T cells+mock transduced CD4+ T cells, HPV E7 specific TCR modified CD8+ T cells+hCER104 (SEQ ID NO:176) modified CD4+ T cells, or untreated (n=5 per treatment group). HPV E7 CD8+ T cells and hCER104 CD4+ T cells were administered at a 1:1 ratio. Tumor volume was measured over time by bioluminescence imaging (see, FIGS. 74A-74B).

Assay [2] has as its system HCC827 adenocarcinoma cells. Description: HCC827 xenograft in NSG mice with osimertinib, bioluminescence imaging and immunofluorescence. The class given is in vivo. How it is done: Growth of HCC827/luceriferase^+ cells in NSG mice upon adoptive transfer of purified hCER122 modified CD4+ T cells or hCER122 modified CD+ T cells with concomitant targeted inhibitor therapy was measured by bioluminescence imaging. Data represents mean values (n=5 mice/treatment group).
Tumor specimens were stained with anti-EGFR (tumor antigen), anti-CD4, anti-PD1, and DAPI counter-stain (left image).
CD3+ or CD4+ T cells were purified from PBMCs, activated, and transduced with lentiviral vector comprising hCER122 nucleic acid. hCER122 is a human CER122 construct comprising a Tim4 binding domain, a Tim4 transmembrane domain, TLR2 engulfment signaling domain, and Dap12 engulfment signaling domain and comprises an amino acid sequence of SEQ ID NO:179. Transduced T cells were expanded. hCER122 modified CD3+ T cells (2.5×10^6 or 5×10^6) or hCER122 modified CD4+ T cells (2.5×10^6 or 5×10^6) were infused into NSG mice engrafted with HCC827 adenocarcinoma cells (2 million/mouse). HCC827 xenograft mice also received 1 mg/kg osimertinib post-engraftment. […] Microscopy images of immunofluorescence stained tumor cells from HCC827 xenograft model at day 16. Tumor specimens were stained with anti-EGFR (tumor antigen), anti-CD4, anti-PD1, and DAPI counter-stain.

B1: CER126: Chimeric engulfment receptor: Tim4 binding, Tim4 transmembrane, TLR2 and TRAF2 signaling; SEQ ID NO: 169 (protein)
chain: MSKGLLLLWLVTELWWLYLTPAASEDTIIGFLGQPVTLPCHYLSWSQSRNSMCWGKGSCPNSKCNAELLRTDGTRIISRKSTKYTLLGKVQFGEVSLTISNTNRGDSGVYCCRIEVPGWFNDVKKNVRLELRRATTTKKPTTTTRPTTTPYVTTTTPELLPTTVMTTSVLPTTTPPQTLATTAFSTAVTTCPSTTPGSFSQETTKGSAFTTESETLPASNHSQRSMMTISTDIAVLRPTGSNPGILPSTSQLTTQKTTLTTSESLQKTTKSHQINSRQTILIIACCVGFVLMVLLFLAFLHRFHGLWYMKMMWAWLQAKRKPRKAPSRNICYDAFVSYSERDAYWVENLMVQELENFNPPFKLCLHKRDFIPGKWIIDNIIDSIEKSHKTVFVLSENFVKSEWCKYELDFSHFRLFDENNDAAILILLEPIEKKAIPQRFCKLRKIMNTKTYLEWPMDEAQREGFWVNLRAAIKSMAAASVTPPGSLELLQPGFSKTLLGTKLEAKYLCSACRNVLRRPFQAQCGHRYCSFCLASILSSGPQNCAACVHEGIYEEGISILESSSAFPDNAARREVESLPAVCPSDGCTWKGTLKEYESCHEGRCPLMLTECPACKGLVRLGEKERHLEHECPERSLSCRHCRAPCCGADVKAHHEVCPKFPLTCDGCGKKKIPREKFQDHVKTCGKCRVPCRFHAIGCLETVEGEKQQEHEVQWLREHLAMLLSSVLEAKPLLGDQSHAGSELLQRCESLEKKTATFENIVCVLNREVERVAMTAEAC
modifications: CER126, amino acids 1-22 are signal peptide
As to B1, the “engulfment of SCC152 target cells seen in fluorescent micrographs” value in the assay on SCC152 cells is reported as “engulfed”.

B2: HPV E7 specific TCR: HPV16 E7 specific TCR (see WO2015/184228), TCRβ and TCRα chains joined by P2A; SEQ ID NO:84; expressed in CD8+ T cells (protein)
chain: MAPGLLCWALLCLLGAGLVDAGVTQSPTHLIKTRGQQVTLRCSPKSGHDTVSWYQQALGQGPQFIFQYYEEEERQRGNFPDRFSGHQFPNYSSELNVNALLLGDSALYLCASSLGWRGGRYNEQFFGPGTRLTVLEDLRNVTPPKVSLFEPSKAEIANKQKATLVCLARGFFPDHVELSWWVNGKEVHSGVCTDPQAYKESNYSYCLSSRLRVSATFWHNPRNHFRCQVQFHGLSEEDKWPEGSPKPVTQNISAEAWGRADCGITSASYQQGVLSATILYEILLGKATLYAVLVSTLVVMAMVKRKNSRAKRSGSGATNFSLLKQAGDVEENPGPMWGVFLLYVSMKMGGTTGQNIDQPTEMTATEGAIVQINCTYQTSGFNGLFWYQQHAGEAPTFLSYNVLDGLEEKGRFSSFLSRSKGYSYLLLKELQMKDSASYLCASVDGNNRLAFGKGNQVVVIPNIQNPEPAVYQLKDPRSQDSTLCLFTDFDSQINVPKTMESGTFITDKCVLDMKAMDSKSNGAIAWSNQTSFTCQDIFKETNATYPSSDVPCDATLTEKSFETDMNLNFQNLLVIVLRILLLKVAGFNLLMTLRLWSS
modifications: HPV16 E7 TCRbeta chain-P2A-TCRalpha chain
notes: HPV16 E7 specific TCR (see WO2015/184228), TCRβ and TCRα chains joined by P2A; expressed in CD8+ T cells
Consider B2, for which, in assay [1], the “anti-tumor response (bioluminescence)” value is listed as “anti-tumor response”.

B3: hCER122: human CER122 construct: Tim4 binding domain, Tim4 transmembrane domain, TLR2 and Dap12 engulfment signaling domains; SEQ ID NO:179 (protein)
chain: ETVVTEVLGHRVTLPCLYSSWSHNSNSMCWGKDQCPYSGCKEALIRTDGMRVTSRKSAKYRLQGTIPRGDVSLTILNPSESDSGVYCCRIEVPGWFNDVKINVRLNLQRASTTTHRTATTTTRRTTTTSPTTTRQMTTTPAALPTTVVTTPDLTTGTPLQMTTIAVFTTANTCLSLTPSTLPEEATGLLTPEPSKEGPILTAESETVLPSDSWSSVESTSADTVLLTSKESKVWDLPSTSHVSMWKTSDSVSSPQPGASDTAVPEQNKTTKTGQMDGIPMSMKNEMPISQLLMIIAPSLGFVLFALFVAFLHRFHGLWYMKMMWAWLQAKRKPRKAPSRNICYDAFVSYSERDAYWVENLMVQELENFNPPFKLCLHKRDFIPGKWIIDNIIDSIEKSHKTVFVLSENFVKSEWCKYELDFSHFRLFDENNDAAILILLEPIEKKAIPQRFCKLRKIMNTKTYLEWPMDEAQREGFWVNLRAAIKSYFLGRLVPRGRGAAEAATRKQRITETESPYQELQGQRSDVYSDLNTQRPYYK
modifications: hCER122
For B3, the “anti-tumor response (bioluminescence)” value in assay [2] (CER-modified CD3+ and CD4+ T cells plus 1 mg/kg osimertinib, compared to osimertinib alone) is “enhanced anti-tumor responses”. Moreover, in assay [2] (CER-modified CD4+ T cells plus 1 mg/kg osimertinib), the “tumor elimination (bioluminescence)” value was “eliminated tumors”. Besides, the “T cell infiltration of tumor, immunofluorescence staining” value in assay [2] (day 16, anti-EGFR, anti-CD4, anti-PD1, DAPI) was “infiltration of PD1+CD4+ T cells (functionally active) into tumor stroma”.
